The target of the test is T1, Human ubiquitin (human, UniProt P0CG48 1-76).
T1 construct: ubiquitin, human; the cut product of the ubiquitin precursors; also called acceptor Ub; source: bought: BostonBiochem (lyophilized)
The test is described as follows: NMR titration; 2D 1H-15N HSQC at 600 MHz; [U-15N]-E2-25K at 417-428 uM with ubiquitin at 0, 200, 400, 560, 790 and 1600 uM in six samples; PBS buffer (20 mM sodium phosphate, 150 mM NaCl, DTT, pH 7.4); chemical shift changes fit to a 1:1 binding isotherm; kon and koff from 15N lineshape analysis of G173 (Bloch-McConnell, two site exchange). Particulars: both partners purified.

As usually defined, the Kd is the free concentration of one partner at which half of the binding sites on the other are occupied at equilibrium, for simple one-to-one binding. As usually defined, the koff is a measure of how fast the partners let go of each other. In general, kon refers to a measure of how fast the partners come together.

B1: Human E2-25K (enzyme, UniProt P61086 1-200, looked up)
chain: MANIAVQRIKREFKEVLKSEETSKNQIKVDLVDENFTELRGEIAGPPDTPYEGGRYQLEIKIPETYPFNPPKVRFITKIWHPNISSVTGAICLDILKDQWAAAMTLRTVLLSLQALLAAAEPDDPQDAVVANQYKQNPEMFKQTARLWAHVYAGAPVSSPEYTKKIENLCAMGFDRNAVIVALSSKSWDVETATELLLSN
notes: E2-25K (ubiquitin-conjugating enzyme, UBC core domain and UBA domain), human; called 'intact human E2-25K' in the results; cloned into pHis-parallel1; [U-15N]-labelled for the NMR titration; also called wildtype E2-25K; intact human E2-25K; source: E. coli BL21(DE3)-RIPL, purified (His-prep column, TEV cleavage, Superdex 75)
Take B1: the Kd was 206 ± 30 µM, the off-rate (koff) is 5890 s⁻¹ and the kon is 2.9e+07 M⁻¹ s⁻¹.

These data come from paper PMC5934386, “Active Site Gate Dynamics Modulate the Catalytic Activity of the Ubiquitination Enzyme E2-25K” (Scientific Reports, 2018).
